Reference: IntAct's records for PubMed 22309289

B1: Protein X (Hepatitis B virus genotype D subtype ayw (isolate France/Tiollais/1979)), P03165 (parent)
chain: MAARLCCQLDPARDVLCLRPVGAESRGRPFSGSLGTLSSPSPSAVPTDHGAHLSLRGLPVCAFSSAGPCALRFTSARRMETTVNAHQILPKVLHKRTLGLSAMSTTDLEAYFKDCLFKDWEELGEEIRLKVFVLGGCRHKLVCAPAPCNFFTSA

Variants of: B1
Settings: with akt1_human AKT1, P31749
Chain of akt1_human AKT1, P31749 (P31749 whole entry): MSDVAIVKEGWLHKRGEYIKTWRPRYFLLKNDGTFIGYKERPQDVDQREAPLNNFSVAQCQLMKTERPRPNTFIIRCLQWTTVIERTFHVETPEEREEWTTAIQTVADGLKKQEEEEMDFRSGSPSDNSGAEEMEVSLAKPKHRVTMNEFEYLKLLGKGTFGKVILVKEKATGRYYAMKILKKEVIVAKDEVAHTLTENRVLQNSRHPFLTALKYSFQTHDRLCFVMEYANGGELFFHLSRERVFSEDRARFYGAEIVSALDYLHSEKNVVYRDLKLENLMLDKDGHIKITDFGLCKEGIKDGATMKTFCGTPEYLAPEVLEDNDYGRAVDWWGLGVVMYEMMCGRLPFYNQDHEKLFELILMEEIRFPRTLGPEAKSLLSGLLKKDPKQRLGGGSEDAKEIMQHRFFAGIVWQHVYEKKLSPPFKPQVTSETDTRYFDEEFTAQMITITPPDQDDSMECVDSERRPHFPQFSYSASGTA
In the case of S31A, the “effect of a mutation on the interaction” value is reported as “disrupting interaction”.
